Experimental data taken from patent US6803203B1, “DNA-PK assay” (Brookhaven Science Associates, priority 1993, dated 2004).
“Also recorded” adds a separate entry of the source. Residues, ends and D or L forms follow the SMILES beside them. No end group written: not given here.

Legend:
Format in all cases: biochemical
[1] = target: T1, DNA-PK (Homo sapiens, UniProt P78527); assay: Identification of phosphorylated residues (sequence analysis, S-ethylcysteine conversion); settings: p53 residue numbering
T1 construct: DNA-PK was purified from HeLa cells; endogenous in cells; host or cells: HeLa S3 cells; the endogenous enzyme was purified in house by chromatography
Procedure: To determine which of these were phosphorylated, after incubation with DNA-PK, radiochemical sequence analysis was performed by using a Beckman 890M spinning-cup sequencer (Beckman Instruments, Palo Alto, Calif.) as described by Lees-Miller, et al., J. Biol. Chem., 264:17275-17280 (1989). The peptide was isolated by reverse-phase HPLC, peptidylphosphoserine was converted to S-ethylcysteine, and the position of phenylthiohydantoin (PTH)-S-ethylcysteine was determined by chemical microsequence analysis using an Automated Protein/Peptide sequencer (Applied Biosystems, Foster City, Calif.) and a 120 PTH-Amino Acid Analyzer (Applied Biosystems, Foster City, Calif.) as described by Lees-Miller, et al., J. Biol. Chem., 264:17275-17280 (1989).
A peptide corresponding to mouse p53 residues Met^4-Pro^31, (SEQ ID NO: 2), was also examined (See Table 1). Serine 7 of mouse p53 is at the position equivalent to proline 4 of human p53, and the glutamine at position 8 of mouse p53 is conserved among mammals as reported by Soussi, et al., Oncogene, 5:945-952 (1990). After phosphorylation of (SEQ ID NO: 2) the peptide was digested with endoproteinase Glu-C, and the resulting fragments were separated by reverse-phase HPLC. […] Each peptide was treated to convert phosphoserine to S-ethylcysteine; then they were resequenced.

[2] = target: T1, DNA-PK; assay: Poorer substrate peptides added to (SEQ ID NO: 8) phosphorylation assays; settings: peptide up to 250 μM; (SEQ ID NO: 8) at 100 μM
[3] = target: T1, DNA-PK; assay: Phosphorylation of synthetic peptides by purified DNA-PK (phosphocellulose paper binding method); settings: for PO4 incorp.: each peptide at 200 μM, calf thymus DNA 10 μg/ml, 30° C.
Procedure: Phenylmethylsulfonyl fluoride was added to the S10 (10,000×g) supernatant as a powder to 0.5 mM. DNA-PK activity was found in the 100,000×g (ribosomal) pellet. DNA-PK preparations typically were made from 200 ml of S10 supernatant that had been derived from approximately 10^10 cells. All steps were performed at 4° C. unless indicated otherwise.
Phosphorylation reactions were performed in a 20- or 40-μl final volume as previously described by Chen, et al., J. Virol., 10:5131-5140 (1991) and Lees-Miller, et al., Mol. Cell. […] In particular, in addition to synthetic peptide substrates or protein substrates, the assays contained 50 mM HEPES (pH 7.5), 100 mM KCl, 10 mM MgCl2, 2 mM EGTA, 0.1 mM EDTA and 0.125 mM ATP containing [^32P]ATP at 0.2 mCi/ml. […] Assays were started by adding 1 μl of kinase sample. Incubations were at 30° C. for 7 min.
For determinations of kinetic constants, the ATP concentration was 0.5 mM. When present, hsp90 was included at 0.5 mg/ml. Assay mixtures were preincubated at 30° C. for 2 min before addition of 0.1 to 0.5 μg (protein) of the DNA-PK preparation.
In particular, kinase reactions were stopped by adding an equal volume of 30% acetic acid, and portions of the acidified reaction were spotted on 2- by 2-cm squares of P-81 paper (Whatman, Inc., Clifton, N.J.). […] The P-81 squares were then transferred to scintillation vials containing 3.5 ml of water, and bound radioactivity was determined from the Cerenkov radiation. Enzyme activity was calculated from triplicate determinations, using the specific activity of the ATP and the protein concentration, which was determined by the Bio-Rad dye-binding assay (Bio-Rad (Bradford) Protein Assay Kit 1, Cat. No. 500-001, Bio-Rad Laboratories, Hercules, Calif.), using bovine serum albumin as the standard. […] The kinetic constants, Km and Vmax for each peptide sequence were calculated from plots of 1/[S] versus 1/V, the values reported are averages of at least two independent determinations.

[4] = target: T1, DNA-PK; assay: Conditions that result in 50% inhibition of DNA-PK activity; settings: for IC50 / 50% Inhibition: inhibition of DNA-PK activity in vitro
Procedure: Experiments were performed to determine optimal DNA-PK assay conditions. It was determined that DNA-PK is active over a broad pH range and the most common buffers with the exception of phosphate buffers. A summary of assay conditions that optimize DNA-PK activity in vitro is found in Table 4 along with a summary of conditions that result in 50% inhibition of DNA-PK activity.
The methods used to obtain results in the second section (Inhibitor section) of Table 4 are illustrative of methods that are applicable to identifying substances that alter the activity of DNA-PK.

[5] = target: T1, DNA-PK; assay: Phosphorylation of recombinant protein substrates by purified DNA-PK (SDS-PAGE, phosphorimage); settings: 5 μg/ml calf thymus DNA compared to no addition of DNA; 30 minutes at 30° C.
Procedure: The recombinant protein substrates, a total of six, (at approximately 0.1 mg/ml final concentration) were separately mixed with hsp90 in a phosphorylation reaction with purified DNA-PK (0.6 pg, 0.02 units/assay) without (−) or with (+) 5 μg/ml calf thymus DNA, in the presence of ^32P-ATP for 30 minutes at 30° C. as described by Lees-Miller, et al., Mol. Cell. Biol., 12:5041-5049 (1992). The phosphorylation reactions were stopped with SDS sample buffer and analyzed with SDS-PAGE. The gel was fixed, stained with Coomassie brilliant blue, dried and developed by autoradiographic procedures. The results of which can be seen in FIG. 9.

Row | Compound | inhibition of phosphorylation of (SEQ ID NO: 8) [2] | substrate activity for DNA-PK (in words) [3] | PO4 incorp. [3] | other results
1 | MEESQSDISLELPLSQETFSGLWKLLPP [SEQ ID NO: 2] | – | – | – | site phosphorylated by DNA-PK [1]: Ser^7 and Ser^18
2 | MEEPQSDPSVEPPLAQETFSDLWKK [SEQ ID NO: 5] | None of these peptides significantly inhibited the phosphorylation | ineffective substrate for DNA-PK | 5.3 pmol/min/μg of DNA-PK | rate of phosphorylation relative to (SEQ ID NO: 4) ([3]; at 200 μM): about 10%
3 | EPPLSEEAFADLWKK [SEQ ID NO: 32] | None of these peptides significantly inhibited the phosphorylation | effectively eliminated the ability of the sequence to act as a DNA-PK substrate | 0.4 pmol/min/μg of DNA-PK | –
4 | O=P(O)(O)OP(=O)(O)O [Pyrophosphate] | – | – | – | effect on DNA-PK activity (in words) [4]: inhibited; IC50 [4]: 3 mM
5 | OCC(O)CO [Glycerol] | – | – | – | effect on DNA-PK activity (in words) [4]: inhibited; 50% Inhibition [4]: 25 % v/v
6 | EPPDSQEAFADLWKK [SEQ ID NO: 17] | – | less effective substrate for DNA-PK than peptides (SEQ ID NOS: 15 AND 16) | 48 pmol/min/μg of DNA-PK | –
7 | Heparin [reference compound] | – | – | – | effect on DNA-PK activity (in words) [4]: inhibited; 50% Inhibition [4]: 1 µg/mL
8 | hsp90: human heat shock protein hsp90, a known DNA-PK substrate [reference compound] | – | – | – | increase in phosphate incorporation by addition of double stranded DNA [5]: 20 fold
9 | CC(C)C[C@H](NC(=O)[C@H](CC(=O)O)NC(=O)[C@H](C)NC(=O)[C@H](Cc1ccccc1)NC(=O)[C@H](C)NC(=O)[C@H](CCC(=O)O)NC(=O)[C@H](CCC(N)=O)NC(=O)[C@H](CO)NC(=O)[C@H](CC(C)C)NC(=O)[C@@H]1CCCN1C(=O)[C@@H]1CCCN1C(=O)[C@@H](N)CCC(=O)O)C(=O)N[C@@H](Cc1c[nH]c2ccccc12)C(=O)N[C@@H](CCCCN)C(=O)N[C@@H](CCCCN)C(=O)O [SEQ ID NO: 11] (H-EPPLSQEAFADLWKK-OH) | – | – | – | Km relative to (SEQ ID NO: 8) [3]: twofold increase
10 | EPPLAQETFSDLWKK [SEQ ID NO: 22] | – | not phosphorylated efficiently by DNA-PK | – | –
11 | EPPLSYEAFADLLKK [SEQ ID NO: 34] | – | – | 2.3 pmol/min/μg of DNA-PK | –
12 | His Lys Lys Leu Met Phe Lys Thr Glu Gly Pro Asp Ser Asp (HKKLMFKTEGPDSD; Human p53 residues 380-393; listed as Homo sapiens) [SEQ ID NO: 31] | None of these peptides significantly inhibited the phosphorylation | phosphorylated at a negligible rate; also recorded: not substrates for DNA-PK | 0 pmol/min/μg of DNA-PK | –
13 | EPPLSNEAFADLWKK [SEQ ID NO: 33] | None of these peptides significantly inhibited the phosphorylation | eliminated the ability of the sequence to act as a DNA-PK substrate | 0.1 pmol/min/μg of DNA-PK | –
14 | PESEQAFADLWKK [SEQ ID NO: 23] | – | not phosphorylated by DNA-PK | – | –
15 | CSCC[C@H](NC(=O)[C@H](C)NC(=O)[C@H](CCC(N)=O)NC(=O)[C@H](CO)NC(=O)[C@@H]1CCCN1C(=O)[C@H](CC(C)C)NC(=O)[C@@H]1CCCN1C(=O)[C@H](CO)NC(=O)[C@H](CC(C)C)NC(=O)[C@@H](NC(=O)[C@H](CC(N)=O)NC(=O)[C@@H](N)CC(N)=O)C(C)C)C(=O)N[C@@H](CC(=O)O)C(=O)N[C@@H](CC(=O)O)C(=O)N[C@@H](CC(C)C)C(=O)N[C@@H](CCSC)C(=O)N[C@@H](CCCCN)C(=O)N[C@@H](CCCCN)C(=O)O [SEQ ID NO: 6] | – | – | – | Km relative to (SEQ ID NO: 4) [3]: twice as high
16 | Glu Pro Pro Leu Ser Gln Glu Thr Phe Ser Asp—Lys Lys (EPPLSQETFSDKK; Human p53 residues 11-21; listed as Homo sapiens) [SEQ ID NO: 10] | None of these peptides significantly inhibited the phosphorylation | – | 12 pmol/min/μg of DNA-PK | rate of phosphorylation relative to control (SEQ ID NO: 8) [3]: approximately 10%
17 | Ser Lys Lys Gly Gln Ser Thr Ser Arg His Lys Lys Leu Met Phe (SKKGQSTSRHKKLMF; Human p53 residues 371-385; listed as Homo sapiens) [SEQ ID NO: 30] | – | phosphorylated at a negligible rate | 0 pmol/min/μg of DNA-PK | –
18 | Phosphate | – | – | – | effect on DNA-PK activity (in words) [4]: inhibited; IC50 [4]: 10 mM
19 | EPPLSQETFKK [SEQ ID NO: 9] | None of these peptides significantly inhibited the phosphorylation | – | 15 pmol/min/μg of DNA-PK | rate of phosphorylation relative to control (SEQ ID NO: 8) [3]: approximately 10%
